Data from patent US20180066068A9, “ANTI-PSYK ANTIBODY MOLECULES AND USE OF SAME FOR SYK-TARGETED THERAPY” (Millennium Pharmaceuticals, Inc., priority 2014, published 2018).
Blank lines part the entries; values can stand above or below the molecule they belong to.

How the values were obtained:
[1] = tested on: pSYK in TMD8 lymphoma cell line xenograft; experiment: Pharmacodynamics by IHC in TMD8 xenografts; format: in vivo, mice; conditions: single oral dose 120 mg/kg, two hours after dosing; MIL81-1-8 hybridoma and molecular clone antibodies
[2] = tested on: pSYK, pBLNK, cleaved caspase 3 in PHTX-95L primary DLBCL xenografts; experiment: Pharmacodynamics by IHC in PHTX-95L xenografts; format: in vivo, NOD SCID mice
[3] = tested on: DLBCL cell lines; experiment: Inhibition of cellular proliferation; format: cell-based; conditions: expanded set of relevant models; 72 hours of treatment, DLBCL cell lines (FIG. 21)
[4] = biological target: T1, phosphatase-treated GST-pSYK (de-pSYK) (Homo sapiens, UniProt P43405); experiment: Western blot on phosphatase-treated GST-pSYK; format: binding; conditions: GST-tagged recombinant SYK
T1 construct: made in house; host or cells: baculovirus-infected Sf9 cells
Method: Some of the autophosphorylated GST-pSYK was treated with T-cell protein phosphatase (TC-PTP, New England Biolabs), a tyrosine-specific phosphatase, for confirming specificity of antibodies to pSYK.
(§1) Western blots were prepared from SDS-PAGE gels of GST-pSYK (IVK), and phosphatase-treated GST-pSYK. Each hybridoma multiclone supernatant was tested for binding to the blots. […] By this method, multiclone hybridoma supernatants with good binding of phosphorylated relative to dephosphorylated pSYK were 1, 2, 19, 24, 39, 49, 52, 53, 55, 59, 63, 70, 81, 84, 85, 87, 98 and 99.

[5] = biological target: T2, SYK in lysates of WSU-DLCL2 cells (Homo sapiens, UniProt P43405); experiment: Western blot of cell lysates, WSU-DLCL2; format: binding; conditions: lysate of stimulated cells
T2 construct: endogenous in cells; host or cells: WSU-DLCL2 cells, unstimulated or stimulated (BCR crosslinking or pervanadate)
Method: Additional cell culture material was used to screen antibodies by utilizing WSU-DLCL2 (human diffuse large B-cell lymphoma) cells that were stimulated through crosslinking the B-cell receptor (AffiniPure F(ab′)^2 fragment of goat anti-human Ig, cat #109-006-127, JacksonImmuno Research Laboratories, Inc., West Grove, Pa.) or with pervanadate treatment (25 μL into 1 mL of cells of the following; 50 μL Na3VO4, 5.5 μL 9.1M H2O2(31%), 944.5 μl H2O) over a 60 min time course. At each time point cells were collected and lysed in MPER (Thermo: 7850) containing both a protease inhibitor cocktail I (Calbiochem:539131-10VL) and 1× HALT a generic protein phosphatase inhibitor cocktail (Thermo: 78428). Also LY10 (OCI-LY10) cells were used as lysates without or with stimulation with cross-linking or pervanadate as described above. Ly10 cells have weak SYK expression compared to WSUDLCL2 cells (FIG. 1). […] (BLNK was detected in every sample by CST 3575 and SC15345 antibodies, with the pBLNK detection paralleling the pSYK detection in the crosslinked and pervanadate-treated cells.) One conclusion of this study extended the nucleic acid results, and found weak pSYK signal in the Ly10 crosslinked sample. […]

[6] = biological target: T3, pSYK in human DLBCL biopsies (Homo sapiens, UniProt P43405); experiment: IHC of human DLBCL biopsies, AMP HQ versus Leica IHC; format: binding
T3 construct: from tissue; host or cells: FFPE human DLBCL biopsies; one normal lymph node
Method: Antibodies were incubated with OmniMap goat anti-rabbit HRP secondary antibody (Ventana Medical Systems) for 16 minutes. A Discovery AMP TSA HQ kit (Ventana Medical Systems) was applied for 16 minutes followed by 16 minute incubation with the Discovery anti-HQ HRP (Ventana Medical Systems) antibody. The staining was then developed with the 3,3′-diaminobexidine (DAB) substrate map system. Slides were counterstained with hematoxylin and imaged using the Aperio whole slide scanning system (XT). A comparative staining was obtained with the MIL81-1-8 3H3/3L2 antibody using an automated protocol on a Leica automated stainer. pSYK protein levels in Formalin-Fixed, Paraffin-Embedded tissues were incubated with MIL81-1-8 3H3/3L2 antibody ([…]) for 30 minutes on the Leica Microsystems (Wetzlar, Germany) BOND RX automated stainer. Antibodies were incubated with a rabbit anti-goat HRP secondary antibody (Leica Laboratories) and developed with the 3,3′-diaminobexidine (DAB) substrate map system. Slides were counterstained with hematoxylin and imaged using the Aperio whole slide scanning system (XT). The staining of the AMP HQ and the Leica IHC were compared to determine staining specificity. […] Each was scored either positive (membrane stain was found) or negative (no membrane staining was found). […]

[7] = biological target: T4, pSYK in DLBCL patient samples and normal lymph node (Homo sapiens, UniProt P43405); experiment: IHC of molecular clone versus hybridoma antibody on human biopsies; format: binding
T4 construct: from tissue; host or cells: FFPE human DLBCL biopsies; one normal lymph node
Method: The molecular clone antibody also was assessed by IHC. The immunohistochemical staining of antibody purified from MIL81-1-8 hybridoma supernatant as described above was compared to staining by MIL81-1-8 3H3/3L2 clone antibody purified from culture supernatant of transiently co-transfected HEK293 cells (also one-step purification-protein A chromatography followed by buffer exchange).
Both the molecular clone and the hybridoma antibodies stained HBL1 to a moderate extent and strongly stained PHTX95L untreated samples. […] The molecular clone antibody was compared to the hybridoma antibody for staining biopsies of human tissues. There were three DLBCL patient samples and one normal lymph node sample (non-tumorigenic) from a patient. […] If nuclear staining would be considered off-target and lead to a determination of absence of pSYK, then a version of MIL81-1-8, with less nuclear relative to cytoplasmic or membranous staining could lead to fewer false negative results.

[8] = biological target: T5, GST-pSYK (IVK) (Homo sapiens, UniProt P43405); experiment: Western blot on autophosphorylated GST-pSYK (IVK); format: binding; conditions: GST-tagged recombinant SYK, compared with untreated
T5 construct: made in house; host or cells: baculovirus-infected Sf9 cells
Method: GST-hSYK was expressed in baculovirus-infected Sf9 cells and affinity-purified by glutathione Sepharose affinity resin. For in vitro kinase (IVK) pSYK, isolated GST-SYK was incubated in 1 mM ATP, 1 mM MgCl2 for 1 hr at room temperature to allow autophosphorylation to occur. The reaction was stopped by the addition of 5 mM EDTA and a small aliquot removed for treatment with 0.1% SDS, stored […] and used for AlphaScreen analysis or stored at −80° without further purification. This sample was later used at Epitomics for screening assays of hybridoma. An aliquot of the sample was analyzed by SDS-PAGE for Western blotting using anti-SYK (Cell Signaling Technologies #2712) and Epitomics 2175-1. The majority of the recombinant material was confirmed to be phosphorylated at Y525/526.
as §1

[9] = single dose 120 mg/kg, IHC of tumors harvested over time

Molecule: Cn1cc(-c2nc(N[C@@H]3CCCC[C@@H]3N)c(F)c3c2C(=O)NC3)cn1 [Compound A, 6-((1R,2S)-2-Aminocyclohexylamino)-7-fluoro-4-(1-methyl-1H-pyrazol-4-yl)-1H-pyrrolo[3,4-c]pyridin-3(2H)-one]
- pSYK stain in TMD8 xenograft after treatment [1]: diminished
- cleaved caspase 3 expression [2, 9]: increase in expression
- pBLNK (pBLNK65) expression time course [2, 9]: Time dependent inhibition
- pSYK (pSYK525) expression time course [2, 9]: Time dependent inhibition
- pSYK stain in PHTX95L xenograft after treatment ([2]; single oral dose 120 mg/kg, two hours after dosing, MIL81-1-8 hybridoma and molecular clone antibodies): diminished
- EC50 [3]: 0.025 to 4 µM

- Western blot staining of phosphatase-treated recombinant SYK [4]: slightly stained
- Binding to SYK on western blot, stimulated WSU-DLCL2 cells [5]: stained the band
- Samples deemed positive (membrane stain) out of 82 ([6]; AMP HQ amplified IHC, 1:10,000 dilution): 34
- Samples deemed positive (membrane stain) out of 82 ([6]; Leica IHC, 1:3200 dilution): 24
- Nuclear staining intensity compared to hybridoma antibody ([7]; human biopsies): remarkably reduced
B1: MIL81-1-8 3H3/3L2: recombinant molecular clone of MIL81-1-8; heavy chain SEQ ID NO:4, light chain SEQ ID NO:6, from transfected HEK293 cells (antibody)
heavy: METGLRWLLLVAVLKGVQCQSVEESGGRLVTPGTPLTLTCTVSGIDLNSYIMSWVRQAPGKGLEWIGIISRRGNTYYASWPKGRFTISKTSTTVDLKITSPTTEDTATYFCARAYLYTSGTMSVWGPGTLVTVSSGQPKAPSVFPLAPCCGDTPSSTVTLGCLVKGYLPEPVTVTWNSGTLTNGVRTFPSVRQSSGLYSLSSVVSVTSSSQPVTCNVAHPATNTKVDKTVAPSTCSKPTCPPPELLGGPSVFIFPPKPKDTLMISRTPEVTCVVVDVSQDDPEVQFTWYINNEQVRTARPPLREQQFNSTIRVVSTLPIAHQDWLRGKEFKCKVHNKALPAPIEKTISKARGQPLEPKVYTMGPPREELSSRSVSLTCMINGFYPSDISVEWEKNGKAEDNYKTTPAVLDSDGSYFLYSKLSVPTSEWQRGDVFTCSVMHEALHNHYTQKSISRSPGK
light: MDTRAPTQLLGLLLLWLPGARCADIVMTQTPSPVEAAVGGTVTIKCQASESISSYLSWYQQKPGQPPKLLIYRASTLVSGVPSRFKGSGSGTDFTLTISDLECADAATYYCQHTYFGSDYVGGFGGGTEVVVKGDPVAPTVLIFPPAADQVATGTVTIVCVANKYFPDVTVTWEVDGTTQTTGIENSKTPQNSADCTYNLSSTLTLTSTQYNSHKEYTCKVTQGTTSVVQSFNRGDC
- Overall IHC comparison with hybridoma antibody ([7]; cell pellets, xenografts and human biopsies): slightly better than the hybridoma antibody
- Western blot staining of IVK-treated recombinant SYK [8]: stained the IVK-treated SYK band more intensely than the untreated SYK band
